Source: patent US20130005646A1 (Novo Nordisk, published 2013)
Starred links: 1 amine or outer side, 2 acyl side, 3 side chain; linkers in the order of their positions; H or OH if unused. Positions of bridges follow the written chain, without caps; N, C: chain ends. *: point of attachment. C20 diacid = O=C(O)CCCCCCCCCCCCCCCCCCC(=O)*; 19‑carboxyheptadecanoyl = not defined here; γGlu = O=C(O)[C@H](CCC(=O)[*:2])N[*:1]; AEEA = NCCOCCOCC(=O)O

T1: human calcitonin (a) receptor (human, UniProt P30988 25-474)
T1 sequence (looked up): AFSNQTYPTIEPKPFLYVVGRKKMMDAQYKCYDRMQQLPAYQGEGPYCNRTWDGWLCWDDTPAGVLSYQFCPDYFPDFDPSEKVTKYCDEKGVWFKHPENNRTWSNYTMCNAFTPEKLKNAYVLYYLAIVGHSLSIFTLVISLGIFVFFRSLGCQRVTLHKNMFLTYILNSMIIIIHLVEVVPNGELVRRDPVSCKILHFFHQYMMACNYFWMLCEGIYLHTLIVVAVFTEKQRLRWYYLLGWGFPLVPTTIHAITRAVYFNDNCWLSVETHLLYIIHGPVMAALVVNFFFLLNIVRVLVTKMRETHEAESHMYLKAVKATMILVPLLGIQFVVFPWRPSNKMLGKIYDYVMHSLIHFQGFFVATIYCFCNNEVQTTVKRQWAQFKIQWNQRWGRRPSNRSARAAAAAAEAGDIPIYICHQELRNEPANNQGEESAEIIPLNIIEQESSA

T2: human amylin 3(a) receptor (human calcitonin receptor + RAMP-3) (human, UniProt P30988 25-474; O60896 24-148)
T2 sequence (looked up) 1: T1 sequence (looked up)
T2 sequence (looked up) 2: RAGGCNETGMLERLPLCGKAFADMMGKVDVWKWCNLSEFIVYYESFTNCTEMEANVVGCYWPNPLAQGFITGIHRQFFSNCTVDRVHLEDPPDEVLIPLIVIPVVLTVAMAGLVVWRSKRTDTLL

B1: N-alpha-[2-(2-{2-[2-(2-{2-[(S)-4-Carboxy-4-(19-carboxyheptadecanoylamino)butyrylamino]ethoxy}ethoxy)acetylamino]ethoxy}ethoxy)acetyl]-[Glu14,His17,Ser21,His35]- … (peptide)
peptide: {19‑carboxyheptadecanoyl-γGlu-AEEA-AEEA}-KCNTATCATQRLAEFLHHSSSNFGPILPPTNVGSHTY-NH2
modifications: disulfide 2-7; reading uncertain; also: printed as N-alpha-[2-(2-{2-[2-(2-{2-[(S)-4-Carboxy-4-(19-carboxyheptadecanoylamino)butyrylamino]ethoxy}ethoxy)acetylamino]ethoxy}ethoxy)acetyl]-[Glu14,His17,Ser21,His35]-pramlintide
B2: N-alpha-[(S)-4-Carboxy-4-(19-carboxynonadecanoylamino)butyryl]-[Glu14,His17,His32]-pramlintide (peptide)
peptide: {C20 diacid-γGlu}-KCNTATCATQRLAEFLHHSSNNFGPILPPTNHGSNTY-NH2
modifications: disulfide 2-7
SMILES: CC[C@H](C)[C@H](NC(=O)[C@@H]1CCCN1C(=O)CNC(=O)[C@H](Cc1ccccc1)NC(=O)[C@H](CC(N)=O)NC(=O)[C@H](CC(N)=O)NC(=O)[C@H](CO)NC(=O)[C@H](CO)NC(=O)[C@H](Cc1c[nH]cn1)NC(=O)[C@H](Cc1c[nH]cn1)NC(=O)[C@H](CC(C)C)NC(=O)[C@H](Cc1ccccc1)NC(=O)[C@H](CCC(=O)O)NC(=O)[C@H](C)NC(=O)[C@H](CC(C)C)NC(=O)[C@H](CCCNC(=N)N)NC(=O)[C@H](CCC(N)=O)NC(=O)[C@@H](NC(=O)[C@H](C)NC(=O)[C@@H]1CSSC[C@H](NC(=O)[C@H](CCCCN)NC(=O)CC[C@H](NC(=O)CCCCCCCCCCCCCCCCCCC(=O)O)C(=O)O)C(=O)N[C@@H](CC(N)=O)C(=O)N[C@@H]([C@@H](C)O)C(=O)N[C@@H](C)C(=O)N[C@@H]([C@@H](C)O)C(=O)N1)[C@@H](C)O)C(=O)N[C@@H](CC(C)C)C(=O)N1CCC[C@H]1C(=O)N1CCC[C@H]1C(=O)N[C@H](C(=O)N[C@@H](CC(N)=O)C(=O)N[C@@H](Cc1c[nH]cn1)C(=O)NCC(=O)N[C@@H](CO)C(=O)N[C@@H](CC(N)=O)C(=O)N[C@H](C(=O)N[C@@H](Cc1ccc(O)cc1)C(N)=O)[C@@H](C)O)[C@@H](C)O
B3: N-alpha-[(S)-4-Carboxy-4-(19-carboxynonadecanoylamino)butyryl]-[Glu14,His17,Gln21,His35)-pramlintide (peptide)
peptide: {C20 diacid-γGlu}-KCNTATCATQRLAEFLHHSSQNFGPILPPTNVGSHTY-NH2
modifications: disulfide 2-7
SMILES: CC[C@H](C)[C@H](NC(=O)[C@@H]1CCCN1C(=O)CNC(=O)[C@H](Cc1ccccc1)NC(=O)[C@H](CC(N)=O)NC(=O)[C@H](CCC(N)=O)NC(=O)[C@H](CO)NC(=O)[C@H](CO)NC(=O)[C@H](Cc1c[nH]cn1)NC(=O)[C@H](Cc1c[nH]cn1)NC(=O)[C@H](CC(C)C)NC(=O)[C@H](Cc1ccccc1)NC(=O)[C@H](CCC(=O)O)NC(=O)[C@H](C)NC(=O)[C@H](CC(C)C)NC(=O)[C@H](CCCNC(=N)N)NC(=O)[C@H](CCC(N)=O)NC(=O)[C@@H](NC(=O)[C@H](C)NC(=O)[C@@H]1CSSC[C@H](NC(=O)[C@H](CCCCN)NC(=O)CC[C@H](NC(=O)CCCCCCCCCCCCCCCCCCC(=O)O)C(=O)O)C(=O)N[C@@H](CC(N)=O)C(=O)N[C@@H]([C@@H](C)O)C(=O)N[C@@H](C)C(=O)N[C@@H]([C@@H](C)O)C(=O)N1)[C@@H](C)O)C(=O)N[C@@H](CC(C)C)C(=O)N1CCC[C@H]1C(=O)N1CCC[C@H]1C(=O)N[C@H](C(=O)N[C@@H](CC(N)=O)C(=O)N[C@H](C(=O)NCC(=O)N[C@@H](CO)C(=O)N[C@@H](Cc1c[nH]cn1)C(=O)N[C@H](C(=O)N[C@@H](Cc1ccc(O)cc1)C(N)=O)[C@@H](C)O)C(C)C)[C@@H](C)O

Target: T1, human calcitonin (a) receptor
Assay: cell-based or functional assay

Row | Binder | CTa receptor human EC50 [nM]
1 | B1 | 0.277
2 | B2 | 0.124
3 | B3 | 0.169

Target: T2, human amylin 3(a) receptor (human …)
Assay: cell-based or functional assay

Row | Binder | Amylin receptor human EC50 [nM]
4 | B1 | 0.434
5 | B2 | 0.487
6 | B3 | 0.156
